Data on two molecules can be found in publication PMC3920478, “Small molecule-mediated refolding and activation of myosin motor function” (eLife, 2014).

In test [1] the target is T1, β-cardiac myosin S1 (Sus scrofa, UniProt P79293).
T1 construct: S1 and HMM fragments were produced by proteolytic digestion of the full-length proteins with 0.05 mg/ml papain; from tissue; host or cells: porcine cardiac muscle
In words: Microscale thermophoresis direct binding. More on the design: species or system Porcine. From the text:
Proteolytic fragments were further purified by actin-coprecipitation.

For test [2], the target named is β-cardiac myosin (Sus scrofa, UniProt P79293). The test is described as follows: Steady-state basal and actin-activated Mg2+-ATPase (NADH-coupled assay). Conditions: β-cardiac myosin S1, dose-dependence. Format: biochemical, Porcine. The method, then:
Rabbit fast skeletal muscle heavy meromyosin (HMM) was prepared as described by [Margossian and Lowey (1982)]. Porcine β-cardiac myosin was prepared essentially as described by [Pant et al. (2009)] and [Jacques et al. (2008)] and further purified by gel filtration. S1 and HMM fragments were produced by proteolytic digestion of the full-length proteins with 0.05 mg/ml papain (10 min, 25°C) for S1 and with 0.1 mg/ml TLCK-treated α-chymotrypsin (15 min, 25°C) for HMM. Reactions were stopped with specific protease inhibitors for papain (10 µM E−64) and chymotrypsin (10 µM chymostatin, 1 mM benzamidine). Proteolytic fragments were further purified by actin-coprecipitation. Pellets were washed twice and myosin was extracted from the pellets using ATP containing buffer. Gel filtration was used to further increase purity of myosin S1 and HMM fragments. His-tagged motor domain constructs of Dd myosin-2, Dd myosin-1B, Dd myosin-1C, Dd myosin-1D, Dd myosin-1E, Dd myosin-5b fused to two Dd α-actinin repeats substituting the light-chain binding domains ([Anson et al., 1996]) were expressed in Dd AX3-ORF + cells and purified by Ni^2+-chelate affinity chromatography ([Manstein and Hunt, 1995]).
Basal and actin-activated Mg^2+-ATPase activities were measured using the NADH-coupled assay described previously ([Furch et al., 1998]) adapted for higher throughput screens for a temperature controlled plate reader (Multiscan FC, Thermo Scientific, Waltham, MA) at 25°C. […] Control measurements were carried out in the absence of drug, as well as in the presence of according concentrations of the non-binding (−)-enantiomer EMD 57439 to account for possible absorption effects. […] Data points are mean values from 3 to 5 independent experiments. Error bars indicate standard deviations.

The test system of test [3] is phosphodiesterase III. More on the design: method as in Gambassi et al., 1993. Particulars: ref Gambassi et al., 1993; cited from earlier work.
For test [4], the target named is F-actin (UniProt P68135).

Entries after “also recorded” stand apart in the source; their conditions may differ.

Sequence of β-cardiac myosin (P79293 1-810 limits assumed): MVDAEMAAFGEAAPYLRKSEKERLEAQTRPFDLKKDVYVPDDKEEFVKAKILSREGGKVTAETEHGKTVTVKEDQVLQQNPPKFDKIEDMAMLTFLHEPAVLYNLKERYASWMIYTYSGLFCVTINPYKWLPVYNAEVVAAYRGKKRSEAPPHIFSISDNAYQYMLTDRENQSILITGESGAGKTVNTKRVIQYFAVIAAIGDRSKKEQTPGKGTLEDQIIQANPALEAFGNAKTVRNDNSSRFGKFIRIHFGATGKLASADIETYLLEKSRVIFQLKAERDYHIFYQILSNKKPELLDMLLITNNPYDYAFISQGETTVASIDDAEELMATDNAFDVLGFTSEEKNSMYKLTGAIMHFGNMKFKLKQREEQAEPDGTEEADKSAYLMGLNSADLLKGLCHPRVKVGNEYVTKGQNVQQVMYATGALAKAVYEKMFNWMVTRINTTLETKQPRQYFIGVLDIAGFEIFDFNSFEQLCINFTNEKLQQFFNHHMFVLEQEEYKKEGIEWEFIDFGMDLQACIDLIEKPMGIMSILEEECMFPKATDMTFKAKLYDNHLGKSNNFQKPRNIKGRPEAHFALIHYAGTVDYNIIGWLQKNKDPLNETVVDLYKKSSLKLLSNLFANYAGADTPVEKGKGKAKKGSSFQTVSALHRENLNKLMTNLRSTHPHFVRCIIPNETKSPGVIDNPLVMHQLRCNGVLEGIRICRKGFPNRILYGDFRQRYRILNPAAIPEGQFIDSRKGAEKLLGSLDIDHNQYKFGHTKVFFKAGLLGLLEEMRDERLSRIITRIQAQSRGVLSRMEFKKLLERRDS
T1 sequence (P79293 1-843 limits assumed): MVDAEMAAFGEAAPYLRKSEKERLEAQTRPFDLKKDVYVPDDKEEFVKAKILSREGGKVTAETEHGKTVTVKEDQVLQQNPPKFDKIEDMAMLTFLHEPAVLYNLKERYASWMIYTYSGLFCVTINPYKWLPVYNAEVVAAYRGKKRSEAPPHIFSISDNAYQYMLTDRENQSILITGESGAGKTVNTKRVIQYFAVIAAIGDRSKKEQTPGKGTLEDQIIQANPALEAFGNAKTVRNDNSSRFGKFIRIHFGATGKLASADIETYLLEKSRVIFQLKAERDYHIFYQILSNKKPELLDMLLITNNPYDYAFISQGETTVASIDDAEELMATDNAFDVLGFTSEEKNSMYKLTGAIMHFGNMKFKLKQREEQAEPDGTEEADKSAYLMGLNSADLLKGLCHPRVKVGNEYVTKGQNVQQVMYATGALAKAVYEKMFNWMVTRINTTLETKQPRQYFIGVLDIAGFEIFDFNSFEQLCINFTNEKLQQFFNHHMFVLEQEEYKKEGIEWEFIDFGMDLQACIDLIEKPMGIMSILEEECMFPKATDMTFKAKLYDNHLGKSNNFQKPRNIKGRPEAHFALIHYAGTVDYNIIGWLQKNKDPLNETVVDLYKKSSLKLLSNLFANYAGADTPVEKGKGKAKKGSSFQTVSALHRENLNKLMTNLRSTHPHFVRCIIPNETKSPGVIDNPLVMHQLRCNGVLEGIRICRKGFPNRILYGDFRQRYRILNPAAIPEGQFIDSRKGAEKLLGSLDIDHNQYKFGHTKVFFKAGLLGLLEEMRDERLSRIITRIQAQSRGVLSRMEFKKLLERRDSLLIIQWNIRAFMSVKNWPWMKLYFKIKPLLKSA

For `COc1ccc(C(=O)N2CCCc3cc(C4=NNC(=O)SC4C)ccc32)cc1OC` (stereo not shown) [EMD 57439], the “Binding (in words)” value in test [1] is “Neither binding nor activation was observed”. For the same molecule, in test [2], the “Activation of the actin-activated ATPase (in words)” value is reported as “Neither binding nor activation was observed; also recorded: no activation”. The “Phosphodiesterase III inhibition” value in test [3] was “potent phosphodiesterase III inhibitor”.
In the case of “β-cardiac myosin (from UniProt P79293 1-1935) (natural protein)”, in test [4], the K M(Actin): F-actin concentration for half-maximal activation of the steady-state ATPase, control without EMD 57033 came to 36.8 µM; the K M(Actin): F-actin concentration for half-maximal activation of the steady-state ATPase, with 25 µM EMD 57033 stood at 3.6 µM; the kcat/K M(Actin) of the actin-activated ATPase, calculated ratio, control without EMD 57033 was 3260 M⁻¹ s⁻¹; the kcat/K M(Actin) of the actin-activated ATPase, calculated ratio, with 25 µM EMD 57033 is 0.0528 µM^v1 s^−1.
